Target: wild-type T7 DNA polymerase (gp5 with E. coli thioredoxin) (bacteriophage T7 | E. coli) (UniProt P00581)
Sequence (P00581 whole entry, chain 1 of 2): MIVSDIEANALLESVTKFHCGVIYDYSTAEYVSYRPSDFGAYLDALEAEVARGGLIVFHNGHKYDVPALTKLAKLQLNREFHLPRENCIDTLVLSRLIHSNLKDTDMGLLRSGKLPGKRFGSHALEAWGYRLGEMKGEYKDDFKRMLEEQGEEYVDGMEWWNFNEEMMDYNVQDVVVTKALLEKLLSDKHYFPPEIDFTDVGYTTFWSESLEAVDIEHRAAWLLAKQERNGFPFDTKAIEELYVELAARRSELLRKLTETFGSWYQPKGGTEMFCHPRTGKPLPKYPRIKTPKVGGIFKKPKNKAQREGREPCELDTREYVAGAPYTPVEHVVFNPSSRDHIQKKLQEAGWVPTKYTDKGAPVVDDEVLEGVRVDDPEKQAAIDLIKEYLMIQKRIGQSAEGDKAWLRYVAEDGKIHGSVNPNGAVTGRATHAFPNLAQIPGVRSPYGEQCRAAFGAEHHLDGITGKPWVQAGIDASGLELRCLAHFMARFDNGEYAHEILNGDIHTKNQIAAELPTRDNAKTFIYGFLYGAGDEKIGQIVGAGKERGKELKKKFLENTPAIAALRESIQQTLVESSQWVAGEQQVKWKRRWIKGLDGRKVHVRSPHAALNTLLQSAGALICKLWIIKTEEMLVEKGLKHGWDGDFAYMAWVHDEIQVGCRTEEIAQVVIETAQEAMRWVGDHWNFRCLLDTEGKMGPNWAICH
Sequence (P0AA25 whole entry, chain 2 of 2, further chain): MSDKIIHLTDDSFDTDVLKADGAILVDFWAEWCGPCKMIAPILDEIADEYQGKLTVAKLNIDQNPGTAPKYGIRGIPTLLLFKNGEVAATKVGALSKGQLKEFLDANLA

wild-type T7 helicase (gp4), sequence (P03692 whole entry): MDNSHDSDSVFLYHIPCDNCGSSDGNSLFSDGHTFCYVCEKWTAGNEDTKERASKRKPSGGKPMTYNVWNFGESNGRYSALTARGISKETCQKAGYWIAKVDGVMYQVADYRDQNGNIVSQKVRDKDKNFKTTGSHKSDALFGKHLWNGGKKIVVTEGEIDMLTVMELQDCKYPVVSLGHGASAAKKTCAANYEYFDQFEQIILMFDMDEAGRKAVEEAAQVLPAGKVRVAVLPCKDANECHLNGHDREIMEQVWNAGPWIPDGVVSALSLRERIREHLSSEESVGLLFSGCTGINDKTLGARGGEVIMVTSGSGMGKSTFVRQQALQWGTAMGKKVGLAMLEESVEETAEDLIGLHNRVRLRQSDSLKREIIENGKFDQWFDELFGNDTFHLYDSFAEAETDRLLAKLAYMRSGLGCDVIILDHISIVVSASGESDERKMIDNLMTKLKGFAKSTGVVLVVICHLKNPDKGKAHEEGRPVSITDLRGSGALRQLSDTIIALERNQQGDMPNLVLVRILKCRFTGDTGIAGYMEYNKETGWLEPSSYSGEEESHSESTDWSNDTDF

For “wild-type T7 helicase (gp4) (from UniProt P03692 1-566) (enzyme)”, the fraction of single-molecule traces with continued leading-strand synthesis at high rate past a leading-strand CPD lesion, wt DNAP with wt helicase, 6 pN, 0.5 mM dNTP was 28 % of traces.
